Assay results: paper PMC9800568, “The permanently chaperone-active small heat shock protein Hsp17 from Caenorhabditis elegans exhibits topological separation of its N-terminal regions” (The Journal of Biological Chemistry, 2022)

How the values were obtained:
[1] = target: Hsp17 (small heat shock protein Hsp17 from Caenorhabditis elegans) (C. elegans) (UniProt Q20660); test: cryo-EM structure; 2.5 mg/ml Hsp17, Titan Krios 300 kV, tetrahedral symmetry, pseudo-atomic model fitted
[2] = target: Hsp17 (small heat shock protein Hsp17 from Caenorhabditis elegans) (C. elegans) (UniProt Q20660); test: SEC; SEC-HPLC, Superdex 200 Increase 10/300 GL, PBS, 0.5 ml/min, room temperature, 50 μl of 50 μM protein
[3] = target: the molecule itself; test: as above

Row | stoichiometry N [1] | stoichiometry N [2] | Molecule | stoichiometry N [3] [monomers]
1 | 24 | 24 | Hsp17 (small heat shock protein Hsp17 from Caenorhabditis elegans) (from UniProt Q20660 1-149) (natural protein) | 
2 |  |  | Hsp17ΔNTR (Hsp17 variant lacking the N-terminal region) (domain or fragment, C. elegans, Hsp17, C. elegans, from aa position 45 to the C-terminus (ACD and CTR); The full-length protein is modelled to residue 148; also called NTR-truncated variant; truncation variant; source: E. coli BL21 (DE3), tag-free, purified (Sepharose Q FF, Superdex 75 pg)) MGDAIDVVNNDQEYNVSVDVSQFEPEELKVNIVDNQLIIEGKHNEKTDKYGQVERHFVRKYNLPTGVRPEQIKSELSNNGVLTVKYEKNQEQQPKSIPITIVPKRN | 3.5
